According to patent publication US20140348902A1 (University of Texas, published 2014):

Key:
[1] = target: T1, HLA-A2 (HLA-A*0201) on TAP-deficient T2 cells (human); test: T2 cell peptide-binding assay, flow cytometry for HLA-A2
T1 construct: also called MHC I (HLA-A2)
Protocol: (§1) TAP-deficient T2 cells were incubated with 20 μg/ml of peptides and 3 μg/ml of β₂-microglobulin (Sigma-Aldrich, Cat # M4890) for 24 hours at 37° C. and 5% CO₂ in air. […] The binding affinity of the peptide to HLA-A2 (T2 binding index) was quantified as follows: (Mean fluorescence intensity [MFI] of HLA-A2 with peptide—MFI of HLA-A2 without peptide)/(MFI of HLA-A2 without peptide).

[2] = target: T1, HLA-A2 (HLA-A*0201) on TAP-deficient T2 …; test: T2 binding assay, flow cytometry for HLA-A2
Protocol: as §1

Binder: LLPIMWQL (Synthetic peptide) [TCL1 71-78 peptide (LLPIMWQL)]
- binding result [1]: binds

B1: TCL1 65-79 peptide (TQIGPSLLPIMWQLY) (peptide)
peptide: TQIGPSLLPIMWQLY
notes: Synthetic peptide (Sigma-Aldrich, >70% purity); also called P17
- binding result [2]: binds
